Test results taken from paper PMC4075986.

Target: chicken pectoral skeletal muscle actin (F-actin) (chicken) (UniProt P68139)
Test: co-sedimentation

rat tropomyosin Tm5a (natural protein) gave a Ka of 1.7e+06 M⁻¹.
